The values that follow come from patent publication US20250163167A1 (SYNTHEKINE, published 2025).

T1: human IL-10 receptor (hIL-10R alpha and beta chains) on HEK-Blue IL-10 reporter cells (human, UniProt Q13651 22-578; Q08334 20-325)
T1 sequence 1: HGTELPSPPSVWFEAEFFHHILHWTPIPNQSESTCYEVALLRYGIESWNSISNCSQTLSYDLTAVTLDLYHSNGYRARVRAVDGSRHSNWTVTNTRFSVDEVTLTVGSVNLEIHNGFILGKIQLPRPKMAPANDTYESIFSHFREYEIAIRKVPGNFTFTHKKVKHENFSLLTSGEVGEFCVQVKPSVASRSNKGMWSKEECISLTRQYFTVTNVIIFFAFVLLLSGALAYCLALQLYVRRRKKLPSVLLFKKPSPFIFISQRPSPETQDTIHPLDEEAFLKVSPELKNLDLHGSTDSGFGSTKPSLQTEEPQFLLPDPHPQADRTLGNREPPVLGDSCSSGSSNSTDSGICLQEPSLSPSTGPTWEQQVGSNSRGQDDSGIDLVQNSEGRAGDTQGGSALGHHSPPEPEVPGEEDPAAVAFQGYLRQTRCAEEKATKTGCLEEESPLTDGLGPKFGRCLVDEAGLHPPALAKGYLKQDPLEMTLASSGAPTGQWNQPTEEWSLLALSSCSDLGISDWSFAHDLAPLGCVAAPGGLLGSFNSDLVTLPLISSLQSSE
T1 sequence 2: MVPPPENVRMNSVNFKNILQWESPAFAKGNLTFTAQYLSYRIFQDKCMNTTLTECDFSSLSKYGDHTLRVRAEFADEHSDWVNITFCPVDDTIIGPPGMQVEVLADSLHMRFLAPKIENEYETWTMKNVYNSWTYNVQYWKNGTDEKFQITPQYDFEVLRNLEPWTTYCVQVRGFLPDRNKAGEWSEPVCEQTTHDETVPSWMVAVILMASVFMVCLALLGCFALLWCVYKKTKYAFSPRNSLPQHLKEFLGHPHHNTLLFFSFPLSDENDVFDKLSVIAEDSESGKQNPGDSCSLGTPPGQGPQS

B1: IL10R binding molecule of SEQ ID NO: 292 (bispecific antibody)
chain: QVQLQESGGGSVQAGGSLRLSCGASGYTYSSYCMGWFRQVPGKEREGVAVIDSDGSTSYADSVKGRFTISKDNGKNTLYLQMNSLKPEDTAMYYCAADLGHYRPPCGVLYLGMDYWGKGTQVTVSSGGGSQVQLQESGGGSVQAGGSLRLSCAASGYTYSSYCMGWFRQAPGKEREGVAHIDSDGSTSYADSVKGRFTISKDNAKNTLYLQMNSLKPEDTAMYYCAADPIPGPGYCDGGPNKYWGQGTQVTVSSASHHHHHH
B2: IL10R binding molecule of SEQ ID NO: 295 (bispecific antibody)
chain: QVQLQESGGGSVQAGGSLRLSCGASGYTYSSYCMGWFRQVPGKEREGVAVIDSDGSTSYADSVKGRFTISKDNGKNTLYLQMNSLKPEDTAMYYCAADLGHYRPPCGVLYLGMDYWGKGTQVTVSSGGGSQVQLQESGGGSVEAGGSLRLSCAASGYTHSSYCMGWFRQAPGKEREGVAAIDVDGSTTYADSVKGRFTISKDNAKNTLYLQMNSLKPEDTGMYYCAAEFADCSSNYFLPPGAVRYWGQGTQVTVSSASHHHHHH
B3: IL10R binding molecule of SEQ ID NO: 297 (bispecific antibody)
chain: QVQLQESGGGSVQAGGSLRLSCGASGYTYSSYCMGWFRQVPGKEREGVAVIDSDGSTSYADSVKGRFTISKDNGKNTLYLQMNSLKPEDTAMYYCAADLGHYRPPCGVLYLGMDYWGKGTQVTVSSGGGSQVQLQESGGGSVQTGGSLRLSCAASGYTYLRGCMGWFRQAPGKEREGVAVMDVVGDRRSYIDSVKGRFTISRDNAANSVYLQMDNLKPEDTAMYYCTAGPNCVGWRSGLDYWGQGTQVTVSSASHHHHHH
B4: IL10R binding molecule of SEQ ID NO: 286 (bispecific antibody)
chain: QVQLQESGGGSVQAGGSLRLSCTVSGYTYSSNCMGWFRQAPGKEREGVATIYTGGGNTYYADSVKGRFTISQDNAKNTVYLQMNNLKPEDTAMYYCAAEPLSRVYGGSCPTPTFDYWGQGTQVTVSSGGGSQVQLQESGGGSVQAGGSLRLSCAASRYTYNSYCMGWFRQAPGKEREGVATIDSDGMTRYADSVKGRFTISKDNAKNTLYLQMNSLKPEDTAMYYCAADADCTIAAMTTNPLGQGTQVTVSSASHHHHHH
B5: IL10R binding molecule of SEQ ID NO: 289 (bispecific antibody)
chain: QVQLQESGGGSVQAGGSLRLSCTVSGYTYSSNCMGWFRQAPGKEREGVATIYTGGGNTYYADSVKGRFTISQDNAKNTVYLQMNNLKPEDTAMYYCAAEPLSRVYGGSCPTPTFDYWGQGTQVTVSSGGGSQVQLQESGGGSVQAGGSLRLSCAASGYSYSSYCMGWFRQAPGKEREGVATIDSDGMTRYADSVKGRFTISKDNAKNTLYLQMNSLKPEDTAMYYCAAPLYDCDSGAVGRNPPYWGQGTQVTVSSASHHHHHH
B6: IL10R binding molecule of SEQ ID NO: 288 (bispecific antibody)
chain: QVQLQESGGGSVQAGGSLRLSCTVSGYTYSSNCMGWFRQAPGKEREGVATIYTGGGNTYYADSVKGRFTISQDNAKNTVYLQMNNLKPEDTAMYYCAAEPLSRVYGGSCPTPTFDYWGQGTQVTVSSGGGSQVQLQESGGGSVEAGGSLRLSCAASGYTHSSYCMGWFRQAPGKEREGVAAIDVDGSTTYADSVKGRFTISKDNAKNTLYLQMNSLKPEDTGMYYCAAEFADCSSNYFLPPGAVRYWGQGTQVTVSSASHHHHHH
B7: IL10R binding molecule of SEQ ID NO: 258 (bispecific antibody)
chain: QVQLQESGGGSVQAGGSLRLSCAASRYLYSIDYMAWFRQSPGKEREPVAVIYTASGATFYPDSVKGRFTISQDNAKMTVYLQMNSLKSEDTAMYYCAAVRKTDSYLFDAQSFTYWGQGTQVTVSSGGGSQVQLQESGGGSVQAGGSLRLSCAASRYTYNSYCMGWFRQAPGKEREGVATIDSDGMTRYADSVKGRFTISKDNAKNTLYLQMNSLKPEDTAMYYCAADADCTIAAMTTNPLGQGTQVTVSSASHHHHHH
B8: IL10R binding molecule of SEQ ID NO: 294 (bispecific antibody)
chain: QVQLQESGGGSVQAGGSLRLSCGASGYTYSSYCMGWFRQVPGKEREGVAVIDSDGSTSYADSVKGRFTISKDNGKNTLYLQMNSLKPEDTAMYYCAADLGHYRPPCGVLYLGMDYWGKGTQVTVSSGGGSQVQLQESGGGSVQAGGSLRLSCTVSRYTASVNYMGWFRQAPGKEREGVATIFTGAGTTYYANSVKGRFTISRDNAKNTAYLQMNSLKPEDTAIYYCAVDFRGGLLYRPAYEYTYRGQGTQVTVSSASHHHHHH
B9: IL10R binding molecule of SEQ ID NO: 296 (bispecific antibody)
chain: QVQLQESGGGSVQAGGSLRLSCGASGYTYSSYCMGWFRQVPGKEREGVAVIDSDGSTSYADSVKGRFTISKDNGKNTLYLQMNSLKPEDTAMYYCAADLGHYRPPCGVLYLGMDYWGKGTQVTVSSGGGSQVQLQESGGGSVQAGGSLRLSCAASGYSYSSYCMGWFRQAPGKEREGVATIDSDGMTRYADSVKGRFTISKDNAKNTLYLQMNSLKPEDTAMYYCAAPLYDCDSGAVGRNPPYWGQGTQVTVSSASHHHHHH
B10: IL10R binding molecule of SEQ ID NO: 293 (bispecific antibody)
chain: QVQLQESGGGSVQAGGSLRLSCGASGYTYSSYCMGWFRQVPGKEREGVAVIDSDGSTSYADSVKGRFTISKDNGKNTLYLQMNSLKPEDTAMYYCAADLGHYRPPCGVLYLGMDYWGKGTQVTVSSGGGSQVQLQESGGGSVQAGGSLRLSCAASRYTYNSYCMGWFRQAPGKEREGVATIDSDGMTRYADSVKGRFTISKDNAKNTLYLQMNSLKPEDTAMYYCAADADCTIAAMTTNPLGQGTQVTVSSASHHHHHH
B11: IL10R binding molecule of SEQ ID NO: 298 (bispecific antibody)
chain: QVQLQESGGGSVQAGGSLRLSCAASGYSNCSYDMTWYRQAPGKEREFVSAIHSDGSTRYADSVKGRFFISQDNAKNTVYLQMNSLKPEDTAMYYCKTDPLHCRAHGGSWYSVRANYWGQGTQVTVSSGGGSQVQLQESGGGSVQAGGSLRLSCAASGYTYSSGCMGWFRQAPGKEREAVAAINSDGSTSYADSVKGRFTISKDNAKNTLYLQMNSLKPEDTAMYYCAAEPYCSGGYPRWSVAEFGYWGQGTQVTVSSASHHHHHH
B12: IL10R binding molecule of SEQ ID NO: 287 (bispecific antibody)
chain: QVQLQESGGGSVQAGGSLRLSCTVSGYTYSSNCMGWFRQAPGKEREGVATIYTGGGNTYYADSVKGRFTISQDNAKNTVYLQMNNLKPEDTAMYYCAAEPLSRVYGGSCPTPTFDYWGQGTQVTVSSGGGSQVQLQESGGGSVQAGGSLRLSCTVSRYTASVNYMGWFRQAPGKEREGVATIFTGAGTTYYANSVKGRFTISRDNAKNTAYLQMNSLKPEDTAIYYCAVDFRGGLLYRPAYEYTYRGQGTQVTVSSASHHHHHH
B13: IL10R binding molecule of SEQ ID NO: 291 (bispecific antibody)
chain: QVQLQESGGGSVQAGGSLRLSCGASGYTYSSYCMGWFRQVPGKEREGVAVIDSDGSTSYADSVKGRFTISKDNGKNTLYLQMNSLKPEDTAMYYCAADLGHYRPPCGVLYLGMDYWGKGTQVTVSSGGGSQVQLQESGGGSVQAGGSLRLSCAASGYTYSSGCMGWFRQAPGKEREAVAAINSDGSTSYADSVKGRFTISKDNAKNTLYLQMNSLKPEDTAMYYCAAEPYCSGGYPRWSVAEFGYWGQGTQVTVSSASHHHHHH
B14: IL10R binding molecule of SEQ ID NO: 290 (bispecific antibody)
chain: QVQLQESGGGSVQAGGSLRLSCTVSGYTYSSNCMGWFRQAPGKEREGVATIYTGGGNTYYADSVKGRFTISQDNAKNTVYLQMNNLKPEDTAMYYCAAEPLSRVYGGSCPTPTFDYWGQGTQVTVSSGGGSQVQLQESGGGSVQTGGSLRLSCAASGYTYLRGCMGWFRQAPGKEREGVAVMDVVGDRRSYIDSVKGRFTISRDNAANSVYLQMDNLKPEDTAMYYCTAGPNCVGWRSGLDYWGQGTQVTVSSASHHHHHH
B15: IL10R binding molecule of SEQ ID NO: 285 (bispecific antibody)
chain: QVQLQESGGGSVQAGGSLRLSCTVSGYTYSSNCMGWFRQAPGKEREGVATIYTGGGNTYYADSVKGRFTISQDNAKNTVYLQMNNLKPEDTAMYYCAAEPLSRVYGGSCPTPTFDYWGQGTQVTVSSGGGSQVQLQESGGGSVQAGGSLRLSCAASGYTYSSYCMGWFRQAPGKEREGVAHIDSDGSTSYADSVKGRFTISKDNAKNTLYLQMNSLKPEDTAMYYCAADPIPGPGYCDGGPNKYWGQGTQVTVSSASHHHHHH

The test deals with T1, human IL-10 receptor (hIL-10R alpha and …). Description: cell-based or functional assay.
For B1, the “Abs 630 (25 nM)” value stood at 0.78 Abs 630 and the “Abs 630 (100 nM)” value stood at 0.47 Abs 630.
The matching figures for B2: 0.72 Abs 630 and 0.46 Abs 630.
B3: the “Abs 630 (25 nM)” value was 0.46 Abs 630 and the “Abs 630 (100 nM)” value was 0.36 Abs 630.
B4: the “Abs 630 (25 nM)” value was determined as 0.46 Abs 630 and the “Abs 630 (100 nM)” value was 0.39 Abs 630.
Take B5: the “Abs 630 (25 nM)” value worked out at 0.48 Abs 630 and the “Abs 630 (100 nM)” value amounted to 0.39 Abs 630.
For B6, the “Abs 630 (25 nM)” value was determined as 0.5 Abs 630 and the “Abs 630 (100 nM)” value is 0.44 Abs 630.
Consider B7, for which the “Abs 630 (25 nM)” value was found to be 0.49 Abs 630 and the “Abs 630 (100 nM)” value was found to be 0.38 Abs 630.
On to B8, for which the “Abs 630 (25 nM)” value was found to be 0.49 Abs 630 and the “Abs 630 (100 nM)” value was 0.39 Abs 630.
Take B9: the “Abs 630 (25 nM)” value amounted to 0.54 Abs 630 and the “Abs 630 (100 nM)” value is 0.38 Abs 630.
Take B10: the “Abs 630 (25 nM)” value is 0.54 Abs 630 and the “Abs 630 (100 nM)” value came to 0.43 Abs 630.
In the case of B11, the “Abs 630 (25 nM)” value was found to be 0.84 Abs 630 and the “Abs 630 (100 nM)” value came out at 0.38 Abs 630.
The corresponding values for B12 are 0.9 Abs 630 and 0.51 Abs 630.
The matching figures for B13: 1.73 Abs 630 and 0.59 Abs 630.
For B14, the “Abs 630 (25 nM)” value is 0.49 Abs 630 and the “Abs 630 (100 nM)” value came out at 0.37 Abs 630.
For B15, the “Abs 630 (25 nM)” value turned out to be 0.48 Abs 630 and the “Abs 630 (100 nM)” value amounted to 0.39 Abs 630.
